Measured values published in US20130129746A1 (GlaxoSmithKline, published 2013).
Changes are numbered by the printed parent chain. Names and notes keep the numbering of the source.

B1: DOM7h-14-10 (other)
VL: DIQMTQSPSSLSASVGDRVTITCRASQWIGSQLSWYQQKPGKAPKLLIMWRSSLQSGVPSRFSGSGSGTDFTLTISSLQPEDFATYYCAQGLRHPKTFGQGTKVEIKR
notes: Vk dAb (AlbudAb)
B2: DOM7h-14-18 (other)
VL: B1 VL with R93M, H94K, K96M
notes: Vk dAb (AlbudAb)
B3: DOM7h-14-19 (other)
VL: B1 VL with T22S, K42E, L92A, R93A, H94L, K96R
notes: Vk dAb (AlbudAb)
B4: DOM7h-11-12 (other)
VL: DIQMTQSPSSLSASVGDRVTITCRASRPIGTMLSWYQQKPGKAPKLLILFGSRLQSGVPSRFSGSGSGTDFTLTISSLQPEDFATYYCAQAGTHPTTFGQGTKVEIKR
B5: DOM7h-11-19 (other)
VL: B4 VL with A91T
B6: DOM7h-11-15 (other)
VL: B4 VL with F50A, G51F
B7: DOM7h-11-18 (other)
VL: B4 VL with L49W, Y87H
B8: DOM7h-11-69 (other)
VL: B4 VL with F50A, G51F, T93V
notes: Vk dAb
B9: DOM7h-11-67 (other)
VL: B4 VL with F50A, G51F, P95H, I106N, R108W
notes: Vk dAb
B10: DOM7h-11-68 (other)
VL: B4 VL with K42E, F50A, G51F, A91T, R108W
notes: Vk dAb
B11: DOM7h-11-56 (other)
VL: B4 VL with T22S, F50A, G51F, R108W
notes: Vk dAb
B12: DOM7h-11-79 (other)
VL: B4 VL with F50A, G51F, A91T, R108W
notes: Vk dAb
B13: DOM7h-11-57 (other)
VL: B4 VL with F50A, G51F, S77N, R108W
notes: Vk dAb
B14: DOM7h-11-65 (other)
VL: B4 VL with F50A, G51F, F83V, R108W
notes: Vk dAb
B15: DOM7h-11-80 (other)
VL: B4 VL with T22F, F50A, G51F, R108W
notes: Vk dAb
B16: DOM7h-11-86 (other)
VL: B4 VL with F50A, G51F, F83V
notes: Vk dAb; also called DOM7h-11-65 W108R/N106I
B17: DOM7h-11-90 (other)
VL: B4 VL with F50A, G51F, S77N
notes: Vk dAb; also called DOM7h-11-57 W108R/N106I
B18: DOM7h-11-87 (other)
VL: B4 VL with F50A, G51F, P95H
notes: Vk dAb; also called DOM7h-11-67 W108R/N106I
B19: DOM7h-11-88 (other)
VL: B4 VL with F50A, G51F, P95H, I106N
notes: Vk dAb; also called DOM7h-11-67 W108R
B20: DOM7h14-10/G4SC-NCE fusion (other)
chain: DIQMTQSPSSLSASVGDRVTITCRASQWIGSQLSWYQQKPGKAPKLLIMWRSSLQSGVPSRFSGSGSGTDFTLTISSLQPEDFATYYCAQGLRHPKTFGQGTKVEIKRGGGGSC
modifications: C-terminal Cys of the GGGGSC spacer conjugated by maleimide through a PEG 4 linker to the NCE (small molecule ADAMTS-4 inhibitor)
notes: AlbudAb-drug conjugate; also called DOM7h14-10 NCE-GGGGSC; DOM7h-14-10 GGGGSC

The binders below were run against T1, Human Serum Albumin (human, UniProt P02768 25-609) (assay: BIAcore SPR).
T1 construct: mature; purified protein on CM5 chips for BIAcore; also called HSA; human SA
Procedure: (§1) Binding to HSA, CSA, MSA and RSA by BIAcore was confirmed using purified protein at 3 concentrations 1 μM, 500 nM and 50 nM.

Kd [nM] | koff [s⁻¹] | kon [M⁻¹ s⁻¹] | Binder
12 | 0.0139 | 1.5e+06 | B1
280 | 0.0339 | 189000 | B2
70 | 0.0525 | 826000 | B3
350 | 0.413 | 1.26e+06 | B4
65 | 0.11 | 1.8e+06 | B5
1 | 0.00184 | 2e+06 | B6
36 | 0.051 | 3.4e+06 | B7

These binders were tested against T2, Rat Serum Albumin (rat, UniProt P02770 25-608) (assay: BIAcore SPR;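 as to koff: purified dAbs run at 1 µM, 500 nM and 50 nM over human, cynomolgus, mouse and rat serum albumin in BIAcore binding measurements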).
T2 construct: mature; purified protein on CM5 chips for BIAcore; also called RSA; rat SA
T2 sequence (P02770 25-608): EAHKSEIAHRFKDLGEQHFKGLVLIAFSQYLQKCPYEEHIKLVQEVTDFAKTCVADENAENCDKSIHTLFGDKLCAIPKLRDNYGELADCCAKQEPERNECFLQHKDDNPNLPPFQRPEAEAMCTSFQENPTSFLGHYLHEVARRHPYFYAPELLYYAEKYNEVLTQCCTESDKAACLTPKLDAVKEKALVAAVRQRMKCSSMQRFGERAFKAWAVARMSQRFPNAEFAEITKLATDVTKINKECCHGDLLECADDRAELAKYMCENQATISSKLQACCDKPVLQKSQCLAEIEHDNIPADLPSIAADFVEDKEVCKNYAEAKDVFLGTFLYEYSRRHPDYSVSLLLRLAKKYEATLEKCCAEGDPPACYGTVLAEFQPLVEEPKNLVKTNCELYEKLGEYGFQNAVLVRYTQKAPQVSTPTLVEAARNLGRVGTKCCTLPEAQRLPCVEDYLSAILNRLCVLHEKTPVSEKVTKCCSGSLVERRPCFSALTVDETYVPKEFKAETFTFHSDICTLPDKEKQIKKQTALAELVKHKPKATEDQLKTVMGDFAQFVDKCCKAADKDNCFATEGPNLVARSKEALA
Procedure: as §1

Kd [nM] | koff [s⁻¹] | kon [M⁻¹ s⁻¹] | Binder
4 | 0.00964 | 4.57e+06 | B1
410 | 0.228 | 560000 | B2
890 | 0.287 | 320000 | B3
200 | 0.522 | 2.76e+06 | B4
28 | 0.091 | 980000 | B5
20 | 0.021 | 1.1e+06 | B6
80 | 0.06 | 1.64e+06 | B7

What follows are binders tested against T3, Cynomolgus monkey Serum Albumin (Cynomolgus monkey, UniProt A2V9Z4 25-608) (assay: BIAcore SPR;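 as to koff: purified dAbs run at 1 µM, 500 nM and 50 nM over human, cynomolgus, mouse and rat serum albumin in BIAcore binding measurements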).
T3 construct: mature; purified protein on CM5 chips for BIAcore; also called CSA; cyno SA
T3 sequence (A2V9Z4 25-608): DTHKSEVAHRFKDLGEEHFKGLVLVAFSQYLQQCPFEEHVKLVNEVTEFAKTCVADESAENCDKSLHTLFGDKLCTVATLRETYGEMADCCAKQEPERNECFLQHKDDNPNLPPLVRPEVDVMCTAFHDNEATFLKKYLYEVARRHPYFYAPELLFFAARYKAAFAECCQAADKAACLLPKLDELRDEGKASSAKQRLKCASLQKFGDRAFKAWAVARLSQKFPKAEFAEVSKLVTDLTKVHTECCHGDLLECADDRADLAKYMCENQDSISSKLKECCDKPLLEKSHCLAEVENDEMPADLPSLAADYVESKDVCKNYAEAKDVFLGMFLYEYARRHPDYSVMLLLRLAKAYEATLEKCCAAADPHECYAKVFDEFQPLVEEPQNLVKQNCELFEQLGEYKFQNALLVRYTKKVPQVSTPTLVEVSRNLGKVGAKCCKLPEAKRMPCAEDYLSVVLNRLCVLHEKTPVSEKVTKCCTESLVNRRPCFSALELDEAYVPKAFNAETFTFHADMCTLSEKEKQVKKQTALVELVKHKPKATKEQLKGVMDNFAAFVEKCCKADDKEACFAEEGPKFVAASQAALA
Procedure: as §1

Kd [nM] | koff [s⁻¹] | kon [M⁻¹ s⁻¹] | Binder
9 | 0.0115 | 1.6e+06 | B1
180 | 0.105 | 630000 | B2
225 | 0.156 | 700000 | B3
≥ 6000 | – | – | B4
≥ 10000 | – | – | B5
3 | 0.00557 | – | B6
10000 | 1.36 | 225000 | B7

The binders below were run against T4, mouse serum albumin (mouse, UniProt P07724 25-608) (assay: BIAcore SPR;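 as to koff: purified dAbs run at 1 µM, 500 nM and 50 nM over human, cynomolgus, mouse and rat serum albumin in BIAcore binding measurements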).
T4 construct: mature; purified protein on CM5 chips for BIAcore; also called MSA; mouse SA
T4 sequence (P07724 25-608): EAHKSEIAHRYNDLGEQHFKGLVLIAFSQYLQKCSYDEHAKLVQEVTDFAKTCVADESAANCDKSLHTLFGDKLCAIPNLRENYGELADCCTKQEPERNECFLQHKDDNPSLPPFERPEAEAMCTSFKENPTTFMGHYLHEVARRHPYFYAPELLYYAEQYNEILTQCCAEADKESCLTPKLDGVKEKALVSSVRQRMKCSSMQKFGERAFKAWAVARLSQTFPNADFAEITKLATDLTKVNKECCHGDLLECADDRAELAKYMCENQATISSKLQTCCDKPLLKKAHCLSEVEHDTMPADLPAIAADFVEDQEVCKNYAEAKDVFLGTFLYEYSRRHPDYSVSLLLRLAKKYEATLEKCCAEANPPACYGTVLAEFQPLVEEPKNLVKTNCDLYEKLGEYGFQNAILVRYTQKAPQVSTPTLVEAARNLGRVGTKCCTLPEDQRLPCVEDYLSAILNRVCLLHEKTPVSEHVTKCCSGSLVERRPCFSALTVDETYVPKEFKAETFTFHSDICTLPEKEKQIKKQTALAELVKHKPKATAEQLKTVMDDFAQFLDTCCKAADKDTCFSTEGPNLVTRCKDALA
Procedure: as §1

Kd [nM] | koff [s⁻¹] | kon [M⁻¹ s⁻¹] | Binder
30 | 0.0341 | 1.29e+06 | B1
65 | 0.0924 | 2.28e+06 | B2
60 | 0.0576 | 1.16e+06 | B3
130 | 0.189 | 1.53e+06 | B4
100 | 0.037 | 1.4e+06 | B5
10 | 0.0094 | 1.1e+06 | B6
150 | 0.024 | 440000 | B7

Biological target: T1, Human Serum Albumin
Test: BIAcore SPR;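 as to koff: purified dAbs run at 1 µM, 500 nM and 50 nM over human, cynomolgus, mouse and rat serum albumin in BIAcore binding measurements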
Remark: another data set of the same source
Source text: (§2) MSA antigen was obtained from Sigma (essentially fatty acid free, ˜99% (agarose gel electrophoresis), lyophilized powder Cat. No. A3559) and CSA was purified from Cynomolgus serum albumin using prometic blue resin (Amersham).

Kd [nM] | Ka [M⁻¹] | kon [M⁻¹ s⁻¹] | Binder
3.2 | – | – | B8
0.9 | 1.12e+09 | 1.75e+06 | B9
33.5 | – | – | B10
1.6 | – | – | B11
5.9 | – | – | B12
1.4 | – | – | B6
1.8 | 5.52e+08 | 1.22e+06 | B13
1.8 | 5.52e+08 | 1.3e+06 | B14
2.1 | – | – | B15

Biological target: T2, Rat Serum Albumin
Test: BIAcore SPR
Remark: another data set of the same source
Source text: as §2

Kd [nM] | Ka [M⁻¹] | kon [M⁻¹ s⁻¹] | Binder
27.1 | – | – | B8
11.6 | 8.6e+07 | 1.33e+06 | B9
25.3 | – | – | B10
23.4 | – | – | B11
11.1 | – | – | B12
21 | – | – | B6
29.2 | 3.42e+07 | 566000 | B13
24.6 | 4.06e+07 | 780000 | B14
24.1 | – | – | B15

Biological target: T3, Cynomolgus monkey Serum Albumin
Test: BIAcore SPR
Remark: another data set of the same source
Source text: as §2

Kd [nM] | Ka [M⁻¹] | kon [M⁻¹ s⁻¹] | Binder
5.9 | – | – | B8
2.7 | 3.69e+08 | 2.03e+06 | B9
37.9 | – | – | B10
5.2 | – | – | B11
11.7 | – | – | B12
5.3 | – | – | B6
6.1 | 1.63e+08 | 1.34e+06 | B13
15.7 | 6.35e+07 | 1.19e+06 | B14
5.5 | – | – | B15

Biological target: T4, mouse serum albumin
Test: BIAcore SPR
Remark: another data set of the same source
Source text: as §2

Kd [nM] | Binder
10 | B8
6.7 | B9
15.5 | B10
7.6 | B11
6.9 | B12
10.3 | B6
10.9 | B13
9.4 | B14
10.9 | B15

Biological target: T1, Human Serum Albumin
Test: BIAcore SPR
Remark: another data set of the same source

Ka [M⁻¹] | Kd [nM] | kon [M⁻¹ s⁻¹] | koff [s⁻¹] | Binder
9.51e+07 | 10.7 | 790000 | – | B16
5.27e+07 | 20.2 | 469000 | 0.0087 | B17
1.37e+08 | 7.39 | 1.17e+06 | – | B18
1.51e+08 | 6.71 | 1.14e+06 | – | B19

Biological target: T2, Rat Serum Albumin
Test: BIAcore SPR
Remark: another data set of the same source

Ka [M⁻¹] | Kd [nM] | kon [M⁻¹ s⁻¹] | Binder
2.8e+07 | 37.8 | 560000 | B16
1.91e+07 | 53.6 | 376000 | B17
5.77e+07 | 17.6 | 830000 | B18
5.96e+07 | 16.9 | 846000 | B19

Biological target: T3, Cynomolgus monkey Serum Albumin
Test: BIAcore SPR
Remark: another data set of the same source

Ka [M⁻¹] | Kd [nM] | kon [M⁻¹ s⁻¹] | Binder
1.08e+08 | 13.4 | 833000 | B16
1.01e+08 | 9.99 | 747000 | B17
2.47e+08 | 4.21 | 1.37e+06 | B18

Each binder was assayed against T2, Rat Serum Albumin (assay: BIAcore SPR (Albumin KD column)).

Kd [nM] | Binder
62 | B20

These binders were tested against T1, Human Serum Albumin (assay: BIAcore SPR, second independent experiment;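 also: purified domain antibodies run as analytes at 50 nM, 500 nM and 1 µM over HSA, CSA, MSA and RSA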).
Procedure: as §1

Kd [nM] | koff [s⁻¹] | kon [M⁻¹ s⁻¹] | Binder
38000 | 0.209 | 5400 | B5
32000 | 0.27 | 8390 | B7

These binders were tested against T2, Rat Serum Albumin (assay: BIAcore SPR, second independent experiment;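 also: purified domain antibodies run as analytes at 50 nM, 500 nM and 1 µM over HSA, CSA, MSA and RSA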).
Procedure: as §1

Kd [nM] | koff [s⁻¹] | kon [M⁻¹ s⁻¹] | Binder
17000 | 0.14 | 8100 | B5
29000 | 0.37 | 13000 | B7

The binders below were run against T3, Cynomolgus monkey Serum Albumin (assay: BIAcore SPR, second independent experiment;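 also: purified domain antibodies run as analytes at 50 nM, 500 nM and 1 µM over HSA, CSA, MSA and RSA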).
Procedure: as §1

Kd [nM] | koff [s⁻¹] | kon [M⁻¹ s⁻¹] | Binder
375000 | 0.62 | 1700 | B5
65000 | 0.48 | 7300 | B7

Each binder was assayed against T4, mouse serum albumin (assay: BIAcore SPR, second independent experiment;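 also: purified domain antibodies run as analytes at 50 nM, 500 nM and 1 µM over HSA, CSA, MSA and RSA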).
Procedure: as §1

Kd [nM] | koff [s⁻¹] | kon [M⁻¹ s⁻¹] | Binder
18000 | 0.088 | 4900 | B5
1600 | 0.0623 | 40000 | B7

The binders below were run against T2, Rat Serum Albumin (assay: Albumin KD column of the PK table (repeats Table 6)).

Kd [nM] | Binder
4 | B1
410 | B2
890 | B3
200 | B4
20 | B6

The binders below were run against T3, Cynomolgus monkey Serum Albumin in the same assay as above.

Kd [nM] | Binder
9 | B1
3 | B6

What follows are binders tested against T4, mouse serum albumin in the same assay as above.

Kd [nM] | Binder
130 | B4
10 | B6
